These are literature values, as cited in PMC4961565.

The term pKa denotes the negative logarithm of the acid dissociation constant.

The series addresses Asp309 (UniProt position 309, LIAAPDTMSVS). The experiment in a line: other.

As to “Cytochrome P450 19A1 (aromatase) (Homo sapiens)”, the pKa is 8.2.
